Reference: article PMC12567051, “Performing Dual Glucose Clamp Experiments in Sedated Farm Swine: A Practical Method” (Methods and Protocols, 2025)

Experiment: Insulin pharmacokinetics during hyperinsulinemic-euglycemic clamp
Assay type: in vivo
Conditions: 24 clamps in 2 swine
Excerpt: One CSII was initiated with commercial insulin lispro (U-100, Eli Lilly and Company, Indianapolis, IN, USA) at 0.4 units/hour, and one with preservative-free saline or diluent via 2 commercial insulin pumps. This strategy was used to mimic real-world conditions and avoid potential occlusion of the catheters, while comparing occlusion rates between insulin and saline infusions. Postoperatively, the swine were monitored twice daily for signs of pain/discomfort, hypoglycemia, and infection. Glucose concentrations (trends) were also monitored using two real-time continuous glucose sensors (CGM G4 Dexcom Inc, San Diego, CA, USA) placed laterally on the lower abdomen.
Once the fasting animal was comfortably positioned in the sling apparatus, endogenous insulin secretion was suppressed using an octreotide infusion. An initial octreotide bolus dose (7.2 µg/kg) was administered 60 min prior to starting the clamp, followed by a maintenance dose of (3.6 µg/kg/h). […]
After beginning the clamp study on the first swine, a second team ensured that duplicate laboratory and anesthesia equipment were set up and calibrated in the other half of the procedure room. […] Blood glucose measurements and insulin samples were obtained at 5 and 10 min intervals for 240 min, while other data, such as vital signs and gas concentrations, were recorded continuously.

insulin lispro
time for insulin concentrations to return to near baseline (after bolus insulin 0.15 IU/kg via CSII catheter, sedated farm swine): ≤ 90 min
insulin Cmax (sedated female farm swine, bolus insulin 0.15 IU/kg via CSII catheter (subcutaneous, abdomen), endogenous insulin suppressed with octreotide, glucose clamped at 85 mg/dL, mean): 0.1085 nM
